Assay results taken from patent US20250115953, “Methylcytosine-Selective Deaminases and Uses Thereof” (New England Biolabs, Inc., published 2025).
Where two headings read alike, the source gives them in different places.

Assays:
B5 deaminase [1] = test system: T1, B5 deaminase
T1 sequence: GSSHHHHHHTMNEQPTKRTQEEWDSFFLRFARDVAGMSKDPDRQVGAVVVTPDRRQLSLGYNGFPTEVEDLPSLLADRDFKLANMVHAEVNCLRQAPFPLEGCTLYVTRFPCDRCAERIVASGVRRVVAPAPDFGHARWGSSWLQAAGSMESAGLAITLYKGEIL

B4 deaminase = conditions: 5mC at position 17; solid support, overnight
B5 deaminase [2] = test system: T1, B5 deaminase; conditions: Zn, 2-3 h
E10 deaminase [3] = test system: T2, E10 deaminase; conditions: 2-3 h
T2 sequence: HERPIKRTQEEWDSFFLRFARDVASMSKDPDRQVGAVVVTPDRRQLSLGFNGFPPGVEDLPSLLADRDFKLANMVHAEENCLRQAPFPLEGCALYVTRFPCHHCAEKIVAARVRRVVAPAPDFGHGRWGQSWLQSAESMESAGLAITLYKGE

F7 deaminase [4] = test system: T3, F7 deaminase; conditions: Zn, 2-3 h
T3 sequence: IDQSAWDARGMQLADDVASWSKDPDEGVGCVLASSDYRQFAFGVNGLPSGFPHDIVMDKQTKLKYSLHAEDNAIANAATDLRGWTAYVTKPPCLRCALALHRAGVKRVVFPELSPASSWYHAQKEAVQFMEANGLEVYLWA

[5] = test system: T4, PBCV-1 deaminase (Paramecium bursaria chlorella virus 1?); conditions: overnight
T4 sequence: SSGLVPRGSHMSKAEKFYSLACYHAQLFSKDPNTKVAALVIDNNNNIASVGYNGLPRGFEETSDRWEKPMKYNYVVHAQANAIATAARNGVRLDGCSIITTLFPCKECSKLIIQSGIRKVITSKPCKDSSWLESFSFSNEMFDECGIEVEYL

B5 deaminase [6] = test system: T1, B5 deaminase; conditions: LC/MS
B5 deaminase [7] = test system: T1, B5 deaminase; conditions: 30 C 12 h, 6 uM enzyme
B5 deaminase [8] = test system: T1, B5 deaminase; conditions: all C replaced by 5mC; most preferred motif ATCAA; least GGCCC 22.51%
E10 deaminase [9] = test system: T2, E10 deaminase; conditions: all C replaced by 5mC; most preferred motif ATCAA; least GGCGC 11.58%
F7 deaminase [10] = test system: T3, F7 deaminase; conditions: all C replaced by 5mC; most preferred motif GTCAG; least GGCCG 5.51%
G12 deaminase = test system: T5, G12 deaminase; conditions: all C replaced by 5mC; most preferred motif TACGG; least GCCCC 0.90%
T5 sequence: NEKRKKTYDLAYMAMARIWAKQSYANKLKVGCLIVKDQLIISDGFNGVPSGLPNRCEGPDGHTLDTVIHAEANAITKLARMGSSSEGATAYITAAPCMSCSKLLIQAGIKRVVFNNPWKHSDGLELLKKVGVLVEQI

H3 deaminase = test system: T6, H3 deaminase; conditions: all C replaced by 5mC; most preferred motif AACTT; least GGCCC 1.28%
T6 sequence: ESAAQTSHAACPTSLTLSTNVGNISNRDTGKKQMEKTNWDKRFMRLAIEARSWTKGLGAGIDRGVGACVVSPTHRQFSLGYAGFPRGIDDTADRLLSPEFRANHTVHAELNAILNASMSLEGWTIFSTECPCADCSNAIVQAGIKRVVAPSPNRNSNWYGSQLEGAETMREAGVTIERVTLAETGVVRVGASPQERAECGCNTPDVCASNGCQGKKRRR

PRW313 = molecular target: T7, PRW313; assay: 1 h; conditions: label: 5'-FAM
T7 chain: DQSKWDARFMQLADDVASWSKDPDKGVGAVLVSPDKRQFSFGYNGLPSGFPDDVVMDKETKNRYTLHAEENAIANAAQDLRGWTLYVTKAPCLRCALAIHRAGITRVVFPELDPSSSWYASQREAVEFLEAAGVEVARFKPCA

PRW314 = molecular target: T8, PRW314; assay: 1 h; conditions: label: 5'-FAM
T8 chain: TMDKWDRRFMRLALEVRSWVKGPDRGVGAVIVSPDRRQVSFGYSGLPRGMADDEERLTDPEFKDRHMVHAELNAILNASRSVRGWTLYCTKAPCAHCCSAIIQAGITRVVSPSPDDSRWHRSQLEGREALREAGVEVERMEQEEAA

PRW294 = molecular target: T9, PRW294; assay: 1 h; conditions: label: 5'-FAM
T9 chain: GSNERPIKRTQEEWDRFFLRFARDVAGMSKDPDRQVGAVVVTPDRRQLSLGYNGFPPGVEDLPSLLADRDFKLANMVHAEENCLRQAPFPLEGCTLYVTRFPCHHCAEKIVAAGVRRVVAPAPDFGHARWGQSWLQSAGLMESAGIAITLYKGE

PRW311 = molecular target: T10, PRW311; assay: 1 h; conditions: label: 5'-FAM
T10 chain: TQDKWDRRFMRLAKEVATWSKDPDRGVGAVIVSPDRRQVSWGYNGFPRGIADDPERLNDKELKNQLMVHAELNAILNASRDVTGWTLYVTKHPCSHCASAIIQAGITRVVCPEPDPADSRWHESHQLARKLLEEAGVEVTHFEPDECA

G10 deaminase = molecular target: T11, G10 deaminase; assay: solid support, overnight; conditions: tags: immobilized on solid support; label: 5'-FAM
T11 chain: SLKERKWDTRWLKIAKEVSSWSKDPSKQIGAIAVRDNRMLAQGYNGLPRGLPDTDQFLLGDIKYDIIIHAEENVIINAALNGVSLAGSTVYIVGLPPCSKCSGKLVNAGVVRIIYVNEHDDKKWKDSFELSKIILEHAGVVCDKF

206 deaminase = molecular target: T12, 206 deaminase; assay: solid support, overnight; conditions: tags: immobilized on solid support; label: 5'-FAM
T12 chain: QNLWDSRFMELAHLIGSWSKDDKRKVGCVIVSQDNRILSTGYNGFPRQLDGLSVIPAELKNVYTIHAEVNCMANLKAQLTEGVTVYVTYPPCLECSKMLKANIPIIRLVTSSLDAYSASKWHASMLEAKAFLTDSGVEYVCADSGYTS

E12 deaminase = molecular target: T13, E12 deaminase; assay: solid support, overnight; conditions: tags: immobilized on solid support; label: 5'-FAM
T13 chain: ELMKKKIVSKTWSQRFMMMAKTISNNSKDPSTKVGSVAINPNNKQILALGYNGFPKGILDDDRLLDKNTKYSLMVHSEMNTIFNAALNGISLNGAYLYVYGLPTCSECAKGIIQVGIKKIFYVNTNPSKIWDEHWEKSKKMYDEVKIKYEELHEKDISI

251 deaminase = molecular target: T14, 251 deaminase; assay: solid support, overnight; conditions: tags: immobilized on solid support; label: 5'-FAM
T14 chain: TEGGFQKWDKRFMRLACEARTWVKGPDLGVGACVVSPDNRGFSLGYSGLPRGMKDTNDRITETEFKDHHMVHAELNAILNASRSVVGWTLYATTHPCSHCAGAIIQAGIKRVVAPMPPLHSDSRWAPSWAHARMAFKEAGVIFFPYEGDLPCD

F12 deaminase = molecular target: T15, F12 deaminase; assay: solid support, overnight; conditions: tags: immobilized on solid support; label: 5'-FAM
T15 chain: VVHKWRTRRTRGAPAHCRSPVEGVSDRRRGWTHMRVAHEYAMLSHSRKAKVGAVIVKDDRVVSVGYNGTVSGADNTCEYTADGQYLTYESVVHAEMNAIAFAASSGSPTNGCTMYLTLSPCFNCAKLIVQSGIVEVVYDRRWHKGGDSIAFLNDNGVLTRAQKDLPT

H2 deaminase = molecular target: T16, H2 deaminase; assay: solid support, overnight; conditions: tags: immobilized on solid support; label: 5'-FAM
T16 chain: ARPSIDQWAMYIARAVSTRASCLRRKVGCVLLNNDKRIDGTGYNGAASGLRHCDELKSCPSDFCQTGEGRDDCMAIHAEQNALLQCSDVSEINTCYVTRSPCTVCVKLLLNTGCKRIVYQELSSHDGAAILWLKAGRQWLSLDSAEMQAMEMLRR

252 deaminase = molecular target: T17, 252 deaminase; assay: solid support, overnight; conditions: tags: immobilized on solid support; label: 5'-FAM
T17 chain: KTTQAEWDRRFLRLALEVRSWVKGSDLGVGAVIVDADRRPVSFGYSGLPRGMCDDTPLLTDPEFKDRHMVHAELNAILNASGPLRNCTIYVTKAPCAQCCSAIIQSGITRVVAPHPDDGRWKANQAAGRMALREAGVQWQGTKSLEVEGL

T4gt genomic DNA, native
activity (% deamination) (B5 deaminase [1]; all C replaced by 5hmC, not denatured): 9

T4 genomic DNA, native
activity (% deamination) (B5 deaminase [1]; 5gmC (glucosylated 5hmC), not denatured): 3

ATACACCGATGCAGAACTCATGGGCTTACGC [FAM 5mC oligo 1]
activity (% deamination) (B4 deaminase): 3
activity (% deamination) (B5 deaminase [2]; 5mC at position 17, EcoRI/CE assay, 42 C, Bis-Tris pH 6.5, 36% in FIG. 7B and when on Ni beads): 74
activity (% deamination) (E10 deaminase [3]; 5mC at position 17, highest measured (6-7% in FIG. 7C/D)): 54
activity (% deamination) (F7 deaminase [4]; 5mC at position 17): 72
activity (% deamination) ([5]; 5mC at position 17, 42 C, Bis-Tris pH 6.5): 51

ssDNA oligo with 5caC (Table 6)
activity (% deamination) (B5 deaminase [6]; 5caC): 2

ssDNA oligo with 5hmC (Table 6)
activity (% deamination) (B5 deaminase [6]; 5hmC): 36

T4gt genomic DNA, denatured
activity (% deamination) (B5 deaminase [1]; all C replaced by 5hmC, NaOH and heat denatured): 27

TGTCCGATAGACTCTACGCA [5mC-oligo (Oligo 2)]
activity (APOBEC; 5mC at position 14, unmodified C 94.1%): 100 % 5mC to T
activity (B5 deaminase [7]; 5mC at position 14, unmodified C 2.80%): 21.1 % 5mC to T

ssDNA oligo with 5fC (Table 6)
activity (% deamination) (B5 deaminase [6]; 5fC): 2

XP12 genomic DNA, native
activity (% deamination) (B5 deaminase [1]; all C replaced by 5mC, not denatured): 4

ssDNA oligo C (Table 6)
activity (% deamination) (B5 deaminase [6]; average): 2

lambda genomic DNA, denatured
activity (% deamination) (B5 deaminase [1]; NaOH and heat denatured): 6

ssDNA oligo with 5mC (Table 6)
activity (% deamination) (B5 deaminase [6]; 5mC): 53

XP12 genomic DNA, denatured
activity (% deamination) (B5 deaminase [1]; all C replaced by 5mC, NaOH and heat denatured): 35
activity (% deamination) (B5 deaminase [8]): 74.6
activity (% deamination) (E10 deaminase [9]): 40.9
activity (% deamination) (F7 deaminase [10]): 22
activity (% deamination) (G12 deaminase): 12.7
activity (% deamination) (H3 deaminase): 11.3

TGTCCGATAGACTCTACGCA [5hmC-oligo (Oligo 1)]
activity (% 5hmC to 5hmU) (APOBEC; 5hmC at position 14, unmodified C 100%): 100
activity (% 5hmC to 5hmU) (B5 deaminase [7]; 5hmC at position 14, DpnII buffer, LC/MS, unmodified C 0.90%): 35

ATACACCGATGCAGAACTCATGGGCTTACGC [FAM C oligo 4]
activity (% deamination) (B5 deaminase [2]): 4
activity (% deamination) (E10 deaminase [3]): 3
activity (% deamination) (F7 deaminase [4]): 12
activity (% deamination) [5]: 7

lambda genomic DNA, native
activity (% deamination) (B5 deaminase [1]; not denatured): 3

ssDNA oligo with 5gmC (Table 6)
activity (% deamination) (B5 deaminase [6]; 5gmC): 2

T4 genomic DNA, denatured
activity (% deamination) (B5 deaminase [1]; 5gmC (glucosylated 5hmC), NaOH and heat denatured): 6

B1: FAM 5mC oligo 1 (ssDNA)
DNA: ATACACCGATGCAGAACTCATGGGCTTACGC
modifications: 5mC at position 17
activity (PRW313): 90 % deamination
activity (PRW314): 90 % deamination
activity (PRW294): 73 % deamination
activity (PRW311): 69 % deamination
activity (G10 deaminase): 4.5 % deamination
activity (206 deaminase): 50 % deamination
activity (E12 deaminase): 5 % deamination
activity (251 deaminase): 66 % deamination
activity (F12 deaminase): 10 % deamination
activity (H2 deaminase): 7 % deamination
activity (252 deaminase): 12 % deamination

B2: FAM C oligo 4 (ssDNA)
DNA: ATACACCGATGCAGAACTCATGGGCTTACGC
activity (PRW313): 11 % deamination
activity (PRW314): 13 % deamination
activity (G10 deaminase): 2.6 % deamination
